The target in the series is T1, OsNPPR1-repeat-MBP (Oryza sativa (rice), UniProt Q6Z2B6 182-806).
T1 sequence: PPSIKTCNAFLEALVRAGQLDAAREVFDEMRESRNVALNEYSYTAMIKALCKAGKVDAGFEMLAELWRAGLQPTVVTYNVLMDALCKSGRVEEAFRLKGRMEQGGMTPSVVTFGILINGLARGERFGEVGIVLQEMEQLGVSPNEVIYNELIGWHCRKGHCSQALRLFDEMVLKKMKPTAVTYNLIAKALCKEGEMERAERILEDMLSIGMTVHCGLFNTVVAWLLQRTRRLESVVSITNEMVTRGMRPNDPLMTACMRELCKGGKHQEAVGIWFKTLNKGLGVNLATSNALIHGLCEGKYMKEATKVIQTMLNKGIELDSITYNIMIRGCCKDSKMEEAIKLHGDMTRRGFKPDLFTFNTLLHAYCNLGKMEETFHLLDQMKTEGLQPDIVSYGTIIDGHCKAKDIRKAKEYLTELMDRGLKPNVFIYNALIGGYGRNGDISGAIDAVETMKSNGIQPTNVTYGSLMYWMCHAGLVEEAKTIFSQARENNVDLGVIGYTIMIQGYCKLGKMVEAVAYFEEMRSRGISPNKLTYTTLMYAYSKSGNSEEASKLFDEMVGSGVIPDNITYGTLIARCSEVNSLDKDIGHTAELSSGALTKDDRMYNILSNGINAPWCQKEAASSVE
In words: EMSA. (In general: In EMSA bound probe runs differently from free probe, usually more slowly.)

With CUCACCUCACCUCACCUCACCUCACCUCAC (ssRNA) [CUCAC probe], the binding result is “binds”.

These data come from article PMC6760278.
